The results in this text go back to PMC4434323.

Data set [1] concerns the target odd-2 (C34H3.2) (Caenorhabditis elegans) (UniProt Q9N5X6).
Data set [2] deals with ZC328.2 (ZC328.2) (Caenorhabditis elegans) (UniProt O02050).
Data set [3] has as its target egrh-1 (C27C12.2) (Caenorhabditis elegans) (UniProt Q18250).
In data set [4] the target is T1, ZK337.2 (ZK337.2) (Caenorhabditis elegans) (UniProt O46016).
T1 sequence: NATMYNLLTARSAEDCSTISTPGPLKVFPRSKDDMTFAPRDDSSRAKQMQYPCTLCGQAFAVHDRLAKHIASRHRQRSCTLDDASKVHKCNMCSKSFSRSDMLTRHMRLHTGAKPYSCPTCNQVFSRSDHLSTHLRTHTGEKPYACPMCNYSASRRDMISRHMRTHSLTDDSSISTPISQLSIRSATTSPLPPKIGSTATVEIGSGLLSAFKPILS

Data set [5] addresses T2, die-1 (C18D1.1) (Caenorhabditis elegans) (UniProt A0A131MCR4).
T2 sequence: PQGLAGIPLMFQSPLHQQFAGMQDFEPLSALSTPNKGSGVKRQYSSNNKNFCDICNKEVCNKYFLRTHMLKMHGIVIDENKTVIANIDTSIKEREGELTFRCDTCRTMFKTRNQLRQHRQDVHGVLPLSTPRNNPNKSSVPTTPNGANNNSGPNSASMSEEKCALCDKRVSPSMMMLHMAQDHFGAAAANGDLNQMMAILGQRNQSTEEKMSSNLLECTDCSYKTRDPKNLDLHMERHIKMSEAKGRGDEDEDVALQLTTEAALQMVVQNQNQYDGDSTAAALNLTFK

Data set [6] deals with T3, ztf-19 (T27B1.2) (Caenorhabditis elegans) (UniProt Q22829).
T3 sequence: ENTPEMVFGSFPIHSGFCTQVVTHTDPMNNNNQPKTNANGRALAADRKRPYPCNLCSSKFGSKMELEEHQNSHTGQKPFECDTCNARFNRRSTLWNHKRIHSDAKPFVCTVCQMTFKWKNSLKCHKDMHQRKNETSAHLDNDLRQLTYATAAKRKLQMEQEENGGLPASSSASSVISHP

Sequence of egrh-1 (C27C12.2) (Caenorhabditis elegans) (Q18250 324-461): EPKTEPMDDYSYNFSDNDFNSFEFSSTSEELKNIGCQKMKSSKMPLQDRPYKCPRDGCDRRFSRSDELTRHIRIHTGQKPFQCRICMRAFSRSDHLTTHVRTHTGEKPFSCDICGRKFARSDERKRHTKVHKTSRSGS
Sequence of ZC328.2 (ZC328.2) (Caenorhabditis elegans) (O02050 entry or part of it): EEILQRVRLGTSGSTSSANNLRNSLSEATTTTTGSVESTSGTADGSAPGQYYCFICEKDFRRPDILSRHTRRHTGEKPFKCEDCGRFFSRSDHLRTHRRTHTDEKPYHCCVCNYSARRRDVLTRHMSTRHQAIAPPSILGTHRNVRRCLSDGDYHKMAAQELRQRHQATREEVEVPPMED
Sequence of odd-2 (C34H3.2) (Caenorhabditis elegans) (Q9N5X6 74-252): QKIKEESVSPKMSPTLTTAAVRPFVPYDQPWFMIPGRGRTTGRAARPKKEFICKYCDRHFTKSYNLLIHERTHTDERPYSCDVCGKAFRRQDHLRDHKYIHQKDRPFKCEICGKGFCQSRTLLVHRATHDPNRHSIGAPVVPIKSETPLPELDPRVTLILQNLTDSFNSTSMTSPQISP

Sequence “CCAGTAGC (double strand) [8-mer CCAGTAGC]” gave a binding signal (PBM E-score (-0.5 to 0.5)) in data set [1] of 0.492.

As for “AGCTACTG (double strand) [8-mer AGCTACTG]”, in data set [1], the binding signal (PBM E-score (-0.5 to 0.5)) is 0.492. Turning to “GCCCACGC (double strand) [8-mer GCCCACGC]”, the binding signal (PBM E-score (-0.5 to 0.5)) in data set [2] stood at 0.485; in data set [3], 0.495.

“CAGTAGCA (double strand) [8-mer CAGTAGCA]”: the binding signal (PBM E-score (-0.5 to 0.5)) in data set [1] is 0.495.

With “ACCCCCGC (double strand) [8-mer ACCCCCGC]”, the binding signal (PBM E-score (-0.5 to 0.5)) in data set [2] amounted to 0.492; in data set [3], 0.485.

As to “ACGGAAGC (double strand) [8-mer ACGGAAGC]”, the binding signal (PBM E-score (-0.5 to 0.5)) in data set [1] was determined as 0.485. As to “CCCACGCA (double strand) [8-mer CCCACGCA]”, the binding signal (PBM E-score (-0.5 to 0.5)) turned out to be 0.497 in data set [2], 0.488 in data set [4] and 0.496 in data set [3]. In the same order, the values of “CCCCCGCA (double strand) [8-mer CCCCCGCA]” are 0.497, 0.494 and 0.495. In the case of “CGCCCACG (double strand) [8-mer CGCCCACG]”, the binding signal (PBM E-score (-0.5 to 0.5)) is 0.492 in data set [4] and 0.495 in data set [3]. On to “GTTTAAAA (double strand) [8-mer GTTTAAAA]”, for which the binding signal (PBM E-score (-0.5 to 0.5)) in data set [5] was 0.471.

The sequence “AGCTACCG (double strand) [8-mer AGCTACCG]” showed a binding signal (PBM E-score (-0.5 to 0.5)) in data set [1] of 0.492. As to “CGCTACCG (double strand) [8-mer CGCTACCG]”, the binding signal (PBM E-score (-0.5 to 0.5)) in data set [1] worked out at 0.488.

With “ACAGTAGC (double strand) [8-mer ACAGTAGC]”, the binding signal (PBM E-score (-0.5 to 0.5)) in data set [1] worked out at 0.499. As to “GGTTTAAA (double strand) [8-mer GGTTTAAA]”, the binding signal (PBM E-score (-0.5 to 0.5)) in data set [5] stood at 0.484. On the same count and under the same terms, as for “ATTTAAAA (double strand) [8-mer ATTTAAAA]”, the figure is 0.481. As for “CGCCCCCA (double strand) [8-mer CGCCCCCA]”, the binding signal (PBM E-score (-0.5 to 0.5)) was determined as 0.494 in data set [4] and 0.493 in data set [3]. For the sequence “GTTTAAAC (double strand) [8-mer GTTTAAAC]”, the binding signal (PBM E-score (-0.5 to 0.5)) in data set [5] was 0.481; in data set [6] it was 0.494. “TTTAAAAA (double strand) [8-mer TTTAAAAA]” came in with a binding signal (PBM E-score (-0.5 to 0.5)) in data set [5] of 0.48. The sequence “CAGTAGCC (double strand) [8-mer CAGTAGCC]” returned a binding signal (PBM E-score (-0.5 to 0.5)) in data set [1] of 0.492. Take “CCCACGCG (double strand) [8-mer CCCACGCG]”: the results for the binding signal (PBM E-score (-0.5 to 0.5)) in data set [2] and in data set [3] were 0.49 and 0.486, respectively. Turning to “CGCCCCCG (double strand) [8-mer CGCCCCCG]”, the figures for the binding signal (PBM E-score (-0.5 to 0.5)) in data set [2], in data set [4] and in data set [3] were 0.489, 0.49 and 0.496, respectively. On to “CCCCCGCG (double strand) [8-mer CCCCCGCG]”, for which the binding signal (PBM E-score (-0.5 to 0.5)) in data set [2] came to 0.488; in data set [3], 0.485. “GATTTAAA (double strand) [8-mer GATTTAAA]” registered a binding signal (PBM E-score (-0.5 to 0.5)) in data set [5] of 0.477. Same read-out and setting: as for “CTTTTAAA (double strand) [8-mer CTTTTAAA]”, the figure is 0.47.

In the case of “AGTTTAAA (double strand) [8-mer AGTTTAAA]”, the binding signal (PBM E-score (-0.5 to 0.5)) was determined as 0.49 in data set [5] and 0.495 in data set [6].

Regarding “AGGGGGCG (double strand) [8-mer AGGGGGCG]”, the binding signal (PBM E-score (-0.5 to 0.5)) in data set [3] amounted to 0.486. Consider “CCCCCACA (double strand) [8-mer CCCCCACA]”, for which the binding signal (PBM E-score (-0.5 to 0.5)) in data set [3] was 0.489.

Turning to “GCCCCCAC (double strand) [8-mer GCCCCCAC]”, the binding signal (PBM E-score (-0.5 to 0.5)) in data set [3] came to 0.486. Regarding “AATTTAAA (double strand) [8-mer AATTTAAA]”, the binding signal (PBM E-score (-0.5 to 0.5)) in data set [5] amounted to 0.497.
